Experimental data published in the Human Domainome abundance scans (Beltran et al. 2025).
± gives the uncertainty stated by the source.

B1: Integrator complex subunit 12, residues 155 to 213; numbered along this chain, Q96CB8 (parent)
chain: AMEMGLACVVCRQMMVASGNQLVECQECHNLYHRDCHKPQVTDKEANDPRLVWYCARCT

Variants of: B1
Assay: abundance fitness (aPCA) (normalised: wild type 0, dead -1); higher = more abundant; growth selection in yeast, the domain comes from the species named
Conditions: Homo sapiens

| Variant | abundance fitness |
| --- | --- |
| D48C | -0.265 ± 0.12 |
| N30W | -0.091 ± 0.086 |
| E24I | -0.387 ± 0.041 |
| V9F | -0.081 ± 0.035 |
| M4K | -0.034 ± 0.072 |
| A56Y | -0.136 ± 0.079 |
| G5A | -0.001 ± 0.036 |
| Q40A | -0.002 ± 0.043 |
| L22T | -0.084 ± 0.049 |
| L51K | 0.089 ± 0.063 |
| D43N | 0.043 ± 0.058 |
| K38L | -0.096 ± 0.041 |
| M2K | -0.013 ± 0.075 |
| L22F | 0.014 ± 0.036 |
| P49M | -0.06 ± 0.069 |
| Q21A | -0.026 ± 0.049 |
| P39W | -0.363 ± 0.049 |
| E45H | -0.134 ± 0.091 |
| P39V | -0.257 ± 0.049 |
| K38R | -0.028 ± 0.04 |
| A56D | -0.273 ± 0.064 |

| Variant | abundance fitness |
| --- | --- |
| A46P | -0.202 ± 0.071 |
| V9M | -0.204 ± 0.054 |
| V41C | -0.276 ± 0.081 |
| Q26V | -0.059 ± 0.043 |
| E24G | -0.3 ± 0.043 |
| R34I | -0.019 ± 0.055 |
| K44P | -0.076 ± 0.054 |
| D35S | -0.034 ± 0.031 |
| H37S | -0.088 ± 0.031 |
| Q13V | -0.114 ± 0.041 |
| Y54R | 0.116 ± 0.054 |
| V52W | -0.36 ± 0.092 |
| R50L | -0.068 ± 0.045 |
| C36M | -0.63 ± 0.064 |
| R34C | -0.17 ± 0.087 |
| M15Q | 0.115 ± 0.071 |
| R12S | 0.055 ± 0.031 |
| V52Y | -0.284 ± 0.087 |
| D43K | -0.163 ± 0.048 |
| P49R | -0.022 ± 0.041 |
| P49E | 0.027 ± 0.05 |

| Variant | abundance fitness |
| --- | --- |
| A56T | -0.054 ± 0.05 |
| R12M | -0.081 ± 0.056 |
| S18D | 0.043 ± 0.035 |
| V10N | -0.191 ± 0.033 |
| E3C | -0.168 ± 0.034 |
| H29D | -0.26 ± 0.035 |
| E27V | -0.184 ± 0.031 |
| C8L | -0.978 ± 0.054 |
| V41I | 0.135 ± 0.058 |
| L6I | 0.007 ± 0.034 |
| D43Q | -0.123 ± 0.048 |
| D48G | -0.083 ± 0.045 |
| T42P | 0.039 ± 0.041 |
| A7G | -0.155 ± 0.04 |
| P49V | -0.082 ± 0.044 |
| T59Y | -0.218 ± 0.21 |
| L51F | -0.048 ± 0.081 |
| L51H | 0.063 ± 0.11 |
| S18V | -0.102 ± 0.032 |
| N47S | 0.035 ± 0.041 |
| E3H | -0.163 ± 0.039 |

| Variant | abundance fitness |
| --- | --- |
| G19S | -0.044 ± 0.04 |
| R57I | -0.103 ± 0.086 |
| R34T | 0.005 ± 0.064 |
| V41S | -0.204 ± 0.05 |
| P39Y | -0.295 ± 0.12 |
| T59D | -0.072 ± 0.17 |
| R12P | -0.546 ± 0.049 |
| M4F | -0.096 ± 0.038 |
| Q21F | -0.078 ± 0.04 |
| L31T | 0.055 ± 0.039 |
| L31P | -0.164 ± 0.052 |
| M4G | -0.044 ± 0.035 |
| M2L | -0.003 ± 0.038 |
| S18K | 0.009 ± 0.056 |
| E24M | -0.397 ± 0.085 |
| L6D | 0.075 ± 0.038 |
| Y54Q | 0.027 ± 0.065 |
| P49F | -0.333 ± 0.14 |
| Q13Y | -0.382 ± 0.036 |
| W53Y | -0.322 ± 0.16 |
| A17M | -0.049 ± 0.061 |
